Here are results for 2 substances from PMC7016869.

The target in test [1] is Exchange protein directly activated by cAMP 1 (EPAC1), recombinant full-length wild-type EPAC1B (human). The experiment in a line: MST; EPAC1-cAMP and Rap1; no further conditions told.
The target is the same in test [2]. The experiment in a line: SAXS; EPAC1 with 1 mM cAMP, no Rap1b, 2.7 mg/mL, 10 mM Tris pH 9, 1 mM EDTA, 10 mM DTT, 500 mM NaCl; monomer to dimer.

One may read the Kd as the free concentration of one partner at which half of the binding sites on the other are occupied at equilibrium, for simple one-to-one binding. The stoichiometry N is a count of units in the complex or per binding partner.

Several values for one entry are separate records, joined by “and”; a condition that tells them apart may be missing. Identical values can stand only once.

Sequence of C-terminally truncated Rap1b (1-167) (P61224 1-167): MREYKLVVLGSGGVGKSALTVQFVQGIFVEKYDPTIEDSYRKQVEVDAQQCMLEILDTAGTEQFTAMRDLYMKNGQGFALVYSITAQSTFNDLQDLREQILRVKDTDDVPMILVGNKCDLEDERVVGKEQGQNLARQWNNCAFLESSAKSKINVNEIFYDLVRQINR

In the case of “C-terminally truncated Rap1b (1-167) (from UniProt P61224 1-167) (domain or fragment)”, the Kd in test [1] was 20 to 60 nM.
Turning to “Exchange protein directly activated by cAMP 1 (EPAC1), recombinant full-length wild-type EPAC1B (natural protein)”, in test [2], the percent monomer in solution (EOM/polydispersity analysis) was in the range of 5 to 15%; the stoichiometry N was 1.8 and 2.4 and 2.2.
